According to US20250388676A1:
Where a chain is given by its changes, count along the chain named. Each block holds one binder with its values, some of them ahead of it.

Experiments:
[1] = molecular target: human OX40 on Jurkat NF-kB-Luc2 OX40 reporter cells (human) (UniProt P43489); experiment: cell-based or functional assay
[2] = molecular target: OX40 (analyte in solution) (UniProt P43489); experiment: SPR (Biacore), construct captured on CM5 chip via anti-human Fc or Fab, antigen as analyte, 25 C
[3] = molecular target: human CD27 on reporter cells (human) (UniProt P26842); experiment: cell-based or functional assay
[4] = molecular target: CD27 (analyte in solution) (UniProt P26842); experiment: SPR (Biacore), construct captured on CM5 chip via anti-human Fc or Fab, antigen as analyte, 25 C
[5] = molecular target: cynomolgus GITR (cynomolgus monkey); experiment: flow cytometry on NFkB-NlucP/HEK293 cells expressing cyno GITR, detection with anti-human IgG Fc F(ab')2 [panel B]
activated human T cells = experiment: flow cytometry on activated primary human T cells, detection with anti-human IgG Fc F(ab')2 [panel A]
activated cyno T cells = experiment: flow cytometry on activated primary cynomolgus T cells, detection with anti-human IgG Fc F(ab')2 [panel B]
[6] = molecular target: human HVEM on Jurkat NF-kB reporter cells (human) (UniProt Q92956); experiment: cell-based or functional assay
[7] = molecular target: human LTBR on Jurkat NF-kB reporter cells (human) (UniProt P36941); experiment: cell-based or functional assay
[8] = molecular target: HVEM (analyte in solution) (UniProt Q92956); experiment: SPR (Biacore), construct captured on CM5 chip via anti-human Fc or Fab, antigen as analyte, 25 C
Chain of HVEM (analyte in solution) (Q92956 39-202 limits assumed): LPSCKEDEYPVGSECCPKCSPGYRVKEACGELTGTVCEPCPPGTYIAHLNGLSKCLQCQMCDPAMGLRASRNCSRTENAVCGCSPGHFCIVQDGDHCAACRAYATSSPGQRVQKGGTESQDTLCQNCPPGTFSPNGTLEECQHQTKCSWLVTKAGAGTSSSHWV

Chain of human CD27 on reporter cells (human) (P26842 20-260): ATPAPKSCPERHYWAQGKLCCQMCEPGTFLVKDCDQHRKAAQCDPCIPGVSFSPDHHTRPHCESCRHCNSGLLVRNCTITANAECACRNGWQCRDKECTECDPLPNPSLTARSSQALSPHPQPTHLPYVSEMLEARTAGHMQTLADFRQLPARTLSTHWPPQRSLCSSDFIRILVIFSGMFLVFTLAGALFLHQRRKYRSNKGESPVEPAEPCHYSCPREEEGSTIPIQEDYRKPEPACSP
Chain of OX40 (analyte in solution) (P43489 29-214 limits assumed): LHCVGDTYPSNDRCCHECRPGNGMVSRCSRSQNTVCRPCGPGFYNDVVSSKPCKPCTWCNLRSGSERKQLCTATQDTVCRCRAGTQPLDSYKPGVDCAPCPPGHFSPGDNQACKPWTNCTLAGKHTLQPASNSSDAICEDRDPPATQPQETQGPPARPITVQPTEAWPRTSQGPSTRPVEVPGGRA
Chain of human HVEM on Jurkat NF-kB reporter cells (human) (Q92956 39-283): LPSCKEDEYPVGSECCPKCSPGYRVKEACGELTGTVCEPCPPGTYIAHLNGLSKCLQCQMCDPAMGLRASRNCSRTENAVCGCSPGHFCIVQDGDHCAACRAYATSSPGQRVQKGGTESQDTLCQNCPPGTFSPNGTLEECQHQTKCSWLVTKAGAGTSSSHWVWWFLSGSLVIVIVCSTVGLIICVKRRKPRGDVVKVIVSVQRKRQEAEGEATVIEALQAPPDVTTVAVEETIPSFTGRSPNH
Chain of CD27 (analyte in solution) (P26842 20-191 limits assumed): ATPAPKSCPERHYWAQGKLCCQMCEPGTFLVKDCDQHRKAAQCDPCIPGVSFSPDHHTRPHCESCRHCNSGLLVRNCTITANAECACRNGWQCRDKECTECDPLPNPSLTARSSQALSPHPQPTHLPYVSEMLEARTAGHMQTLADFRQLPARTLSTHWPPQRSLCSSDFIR
Chain of human LTBR on Jurkat NF-kB reporter cells (human) (P36941 31-435): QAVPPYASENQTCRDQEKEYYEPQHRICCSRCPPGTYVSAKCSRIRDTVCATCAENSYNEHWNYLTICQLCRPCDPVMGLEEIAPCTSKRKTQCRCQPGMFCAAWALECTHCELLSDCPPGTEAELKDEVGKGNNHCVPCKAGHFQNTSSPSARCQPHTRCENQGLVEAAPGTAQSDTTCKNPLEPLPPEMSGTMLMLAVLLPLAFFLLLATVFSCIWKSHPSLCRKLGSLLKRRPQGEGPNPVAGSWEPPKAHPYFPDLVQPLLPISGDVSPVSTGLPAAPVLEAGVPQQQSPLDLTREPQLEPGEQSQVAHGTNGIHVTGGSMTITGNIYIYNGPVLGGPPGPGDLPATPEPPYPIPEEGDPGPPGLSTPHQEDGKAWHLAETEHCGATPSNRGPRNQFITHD
Chain of human OX40 on Jurkat NF-kB-Luc2 OX40 reporter cells (human) (P43489 29-277): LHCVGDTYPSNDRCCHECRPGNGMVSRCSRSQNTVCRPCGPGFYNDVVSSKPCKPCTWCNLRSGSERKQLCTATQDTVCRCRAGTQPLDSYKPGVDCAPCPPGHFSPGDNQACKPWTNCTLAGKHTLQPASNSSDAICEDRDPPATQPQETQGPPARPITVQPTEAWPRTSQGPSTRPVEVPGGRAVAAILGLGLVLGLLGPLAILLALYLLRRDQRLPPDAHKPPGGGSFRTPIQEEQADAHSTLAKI

OX40 reporter EC50 [1]: 0.74 nM | Average binding Relative (RU) [2]: 23.7 RU
B1: OX40L monospecific (protein, part only; not given: carrier Fab or Fc and linkers, not shown: another chain or arm of the molecule; a dimerising Fc or GST; large carriers; small tags and cut ends)
chain: QVSHRYPRIQSIKVQFTEYKKEKGFILTSQKEDEIMKVQDNSVIINCDGFYLISLKGYFSQEVDISLHYQKDEEPLFQLKKVRSVNSLMVASLTYKDKVYLNVTTDNTSLDDFHVNGGELILIHQNPGEFCVLGGGGSGGGGSQVSHRYPRIQSIKVQFTEYKKEKGFILTSQKEDEIMKVQDNSVIINCDGFYLISLKGYFSQEVDISLHYQKDEEPLFQLKKVRSVNSLMVASLTYKDKVYLNVTTDNTSLDDFHVNGGELILIHQNPGEFCVLGGGGSGGGGSQVSHRYPRIQSIKVQFTEYKKEKGFILTSQKEDEIMKVQDNSVIINCDGFYLISLKGYFSQEVDISLHYQKDEEPLFQLKKVRSVNSLMVASLTYKDKVYLNVTTDNTSLDDFHVNGGELILIHQNPGEFCVL

HVEM reporter EC50 [6]: 0.05 nM | LTBR reporter EC50 [7]: 0.0057 nM | Average binding Relative (RU) [8]: 1.69 RU
B6: LIGHT monospecific (protein, part only; not given: carrier Fab or Fc and linkers, not shown: another chain or arm of the molecule; a dimerising Fc or GST; large carriers; small tags and cut ends)
chain: LIQERRSHEVNPAAHLTGANSSLTGSGGPLLWETQLGLAFLRGLSYHDGALVVTKAGYYYIYSKVQLGGVGCPLGLASTITHGLYKRTPRYPEELELLVSQQSPCGRATSSSRVWWDSSFLGGVVHLEAGEKVVVRVLDERLVRLRDGTRSYFGAFMVGGGGSGGGGSLIQERRSHEVNPAAHLTGANSSLTGSGGPLLWETQLGLAFLRGLSYHDGALVVTKAGYYYIYSKVQLGGVGCPLGLASTITHGLYKRTPRYPEELELLVSQQSPCGRATSSSRVWWDSSFLGGVVHLEAGEKVVVRVLDERLVRLRDGTRSYFGAFMVGGGGSGGGGSLIQERRSHEVNPAAHLTGANSSLTGSGGPLLWETQLGLAFLRGLSYHDGALVVTKAGYYYIYSKVQLGGVGCPLGLASTITHGLYKRTPRYPEELELLVSQQSPCGRATSSSRVWWDSSFLGGVVHLEAGEKVVVRVLDERLVRLRDGTRSYFGAFMV

Second part, the binder before the results:

B2: CD70 monospecific (protein, part only; not given: carrier Fab or Fc and linkers, not shown: another chain or arm of the molecule; a dimerising Fc or GST; large carriers; small tags and cut ends)
chain: GWDVAELQLNHTGPQQDPRLYWQGGPALGRSFLHGPELDKGQLRIHRDGIYMVHIQVTLAICSSTTASRHHPTTLAVGICSPASRSISLLRLSFHQGCTIASQRLTPLARGDTLCTNLTGTLLPSRNTDETFFGVQWVRPGGGGSGGGGSGWDVAELQLNHTGPQQDPRLYWQGGPALGRSFLHGPELDKGQLRIHRDGIYMVHIQVTLAICSSTTASRHHPTTLAVGICSPASRSISLLRLSFHQGCTIASQRLTPLARGDTLCTNLTGTLLPSRNTDETFFGVQWVRPGGGGSGGGGSGWDVAELQLNHTGPQQDPRLYWQGGPALGRSFLHGPELDKGQLRIHRDGIYMVHIQVTLAICSSTTASRHHPTTLAVGICSPASRSISLLRLSFHQGCTIASQRLTPLARGDTLCTNLTGTLLPSRNTDETFFGVQWVRP
CD27 reporter EC50 [3]: 1.9 nM | Average binding Relative (RU) [4]: 32.7 RU

B3: GITRL/irrelevant control (antibody, part only; not given: irrelevant anti-TNP binding site, not shown: another chain or arm of the molecule; small tags and cut ends)
chain: QLETAKEPCMAKFGPLPSKWQMASSEPPCVNKVSDWKLEILQNGLYLIYGQVAPNANYNDVAPFEVRLYKNKDMIQTLTNKSKIQNVGGTYELHVGDTIDLIFNSEHQVLKNNTYWGIILLANPQFISGGGGSGGGGSQLETAKEPCMAKFGPLPSKWQMASSEPPCVNKVSDWKLEILQNGLYLIYGQVAPNANYNDVAPFEVRLYKNKDMIQTLTNKSKIQNVGGTYELHVGDTIDLIFNSEHQVLKNNTYWGIILLANPQFISGGGGSGGGGSQLETAKEPCMAKFGPLPSKWQMASSEPPCVNKVSDWKLEILQNGLYLIYGQVAPNANYNDVAPFEVRLYKNKDMIQTLTNKSKIQNVGGTYELHVGDTIDLIFNSEHQVLKNNTYWGIILLANPQFIS
EC50 (read off the curve) [5]: 0.02 nM

B4: GITRLmut/anti-PD-1 mAb1 (antibody, part only; not given: mutant GITRL, constant regions, linkers, not shown: a dimerising Fc or GST)
heavy, part: QLQLQESGPGLVKPSETLSLTCTVSGGSISTSSYFWGWIRQPPGKGLEWIGSIYRSGSTYYNPSLKSRVTISVDTSKNQFSLKLSSVTAADTAVYYCARGITGDPGDYWGQGTLVTVSS
light, part: EIVLTQSPATLSLSPGERATLSCGASQSVSINFLAWYQQKPGLAPRLLIYEASSRATGIPDRFSGSGSGTDFTLTISRLEPEDFAVYYCQQYGSSPYTFGQGTKLEIK
EC50 (read off the curve) (activated human T cells): 0.4 nM | EC50 (read off the curve) (activated cyno T cells): 0.6 nM

B5: GITRLmut/anti-PD-1 mAb2 (antibody, part only; not given: mutant GITRL, constant regions, linkers, not shown: a dimerising Fc or GST)
heavy, part: B4 heavy, part with T31S
light, part: B4 light, part with S30P, A56H, Q90G
EC50 (read off the curve) (activated human T cells): 0.1 nM | EC50 (read off the curve) (activated cyno T cells): 0.2 nM
